From the PETadex activity labels (doi:10.3390/polym4010617)

Tests used:
PLA [1] = experiment: Proxy for plastic degradation [HPLC-UV]; details: pH 7; 37 °C
pNP-C2 = experiment: Proxy for plastic degradation [Specific activity]; details: pH 7
pNPB = experiment: Proxy for plastic degradation [Specific activity]; details: pH 7
PLA [2] = experiment: Proxy for plastic degradation [Released monomer concentration (HPLC/LC-MS) (LA )]; details: pH 7
[3] = Proxy for plastic degradation [Released monomer concentration (HPLC/LC-MS) (BA)] (mmol/mol of enzyme); details: pH 7
[4] = Proxy for plastic degradation [Released monomer concentration (HPLC/LC-MS) (TA)] (mmol/mol of enzyme); details: pH 7
PET [5] = experiment: as above; details: pH 7
[6] = Proxy for plastic degradation [Released monomer concentration (HPLC/LC-MS) (HEB)] (mmol/mol of enzyme); details: pH 7
[7] = Proxy for plastic degradation [Released monomer concentration (HPLC/LC-MS) (MHET)] (mmol/mol of enzyme); details: pH 7
PET [8] = experiment: as above; details: pH 7

B1: unnamed (protein)
chain: MANPYERGPNPTNSSIEALRGPFRVDEERVSRLQARGFGGGTIYYPTDNNTFGAVAISPGYTGTQSSISWLGERLASHGFVVMTIDTNTTLDQPDSRASQLDAALDYMVEDSSYSVRNRIDSSRLAAMGHSMGGGGTLRLAERRPDLQAAIPLTPWHTDKTWGSVRVPTLIIGAENDTIASVRSHSEPFYNSLPGSLDKAYLELDGASHFAPNLSNTTIAKYSISWLKRFVDDDTRYTQFLCPGPSTGWGSDVEEYRSTCPF
In the case of B1, the “Proxy for plastic degradation” value (PLA [1]) is reported as 14.5 µM, the “Proxy for plastic degradation” value (pNP-C2) is reported as 550 U/mg and the “Proxy for plastic degradation” value (pNPB) is reported as 500 U/mg. The “Proxy for plastic degradation” value (PLA [2]) was 14.5 µM, the “Proxy for plastic degradation” value [3] was 58 and the “Proxy for plastic degradation” value [4] was 18. For the same protein, the “Proxy for plastic degradation” value (PET [5]) was 21.5, the “Proxy for plastic degradation” value [6] was 53 and the “Proxy for plastic degradation” value [7] was 35. The “Proxy for plastic degradation” value (PET [8]) was 19.8.
